Read-outs that look alike come from different tables or passages of the source. No end group written: not given here.
Assays:
[1] = molecular target: T1, E2-G bacterially expressed thioredoxin fusion protein (pET32-E2-G, E2 amino acids 412 to 423) (Hepatitis C virus genotype 1a, not fully specified (N-terminus); also: N-terminal thioredoxin fusion partner); assay: ELISA on coated bacterial fusion protein; two-fold antibody dilutions; goat anti-human AP, PNPP
T1 construct: also called WT; not shown: thioredoxin, N-terminal fusion partner of the pET32 vector; C-terminal myc and 6 histidine tags
T1 chain: QLINTNGSWHIN-{myc tag-His6}

[2] = molecular target: T2, E2-G bacterially expressed fusion protein with the E2 412-423 sequence of genotype 5a (Hepatitis C virus genotype 5a, not fully specified (N-terminus); also: N-terminal thioredoxin fusion partner); assay: as above
T2 construct: not shown: thioredoxin, N-terminal fusion partner of the pET32 vector; C-terminal myc and 6 histidine tags
T2 chain: QFVNTNGSWHIN-{myc tag-His6}

[3] = molecular target: T3, E2-G bacterially expressed fusion protein with the E2 412-423 sequence of genotype 4a (Hepatitis C virus genotype 4a, also: vector linker residues not given here); assay: as above
T3 construct: not shown: thioredoxin, N-terminal fusion partner of the pET32 vector; C-terminal myc and 6 histidine tags
T3 chain: thioredoxin-QLINSNGSWHIN-{myc tag-His6 tag}

[4] = molecular target: T4, E2-G bacterially expressed fusion protein with the E2 412-423 sequence of genotype 2b (Hepatitis C virus genotype 2b, also: vector linker residues not given here); assay: as above
T4 construct: not shown: thioredoxin, N-terminal fusion partner of the pET32 vector; C-terminal myc and 6 histidine tags
T4 chain: thioredoxin-HLVNSNGSWHIN-{myc tag-His6 tag}

[5] = molecular target: T5, E2-G bacterially expressed fusion protein with the E2 412-423 sequence of genotype 6g (Hepatitis C virus genotype 6g, not fully specified (N-terminus); also: N-terminal thioredoxin fusion partner); assay: as above
T5 construct: not shown: thioredoxin, N-terminal fusion partner of the pET32 vector; C-terminal myc and 6 histidine tags
T5 chain: QLIKTNGSWHIN-{myc tag-His6}

[6] = molecular target: T6, E2-G bacterially expressed fusion protein with the E2 412-423 sequence of genotype 6k (Hepatitis C virus genotype 6k, not fully specified (N-terminus); also: N-terminal thioredoxin fusion partner); assay: as above
T6 construct: not shown: thioredoxin, N-terminal fusion partner of the pET32 vector; C-terminal myc and 6 histidine tags
T6 chain: QLINSNGSWHVN-{myc tag-His6}

[7] = molecular target: T7, E2-G bacterially expressed fusion protein with the E2 412-423 sequence of genotype 3a (Hepatitis C virus genotype 3a, also: vector linker residues not given here); assay: as above
T7 construct: not shown: thioredoxin, N-terminal fusion partner of the pET32 vector; C-terminal myc and 6 histidine tags
T7 chain: thioredoxin-QLVNSSGSWHIN-{myc tag-His6 tag}

[8] = molecular target: E2-G bacterially expressed fusion protein with the E2 412-423 sequence of a genotype 5 strain (genba (Hepatitis C virus genotype 5)); assay: ELISA, fusion protein coated on plate
[9] = molecular target: T8, N415A (not fully specified); assay: ELISA on coated bacterial fusion protein; two-fold antibody dilutions; goat anti-human AP, PNPP
T8 construct: alanine scanning mutant of E2-G; also called pET32-E2-G-N415A; not shown: N-terminal thioredoxin partner and vector-encoded stretch of pET32
T8 chain: QLIATNGSWHINHHHHHH

[10] = molecular target: T9, G418A; assay: as above
T9 construct: alanine scanning mutant of E2-G; also called pET32-E2-G-G418A

[11] = molecular target: T10, I422A; assay: as above
T10 construct: alanine scanning mutant of E2-G; also called pET32-E2-G-I422A (printed in the text as pET32-E2-G-1422A)

[12] = molecular target: T11, T416A; assay: as above
T11 construct: alanine scanning mutant of E2-G; also called pET32-E2-G-T416A; not shown: N-terminal thioredoxin partner and vector-encoded stretch of pET32

[13] = molecular target: T1, E2-G bacterially expressed thioredoxin …; assay: as above
[14] = molecular target: L413A; assay: as above
[15] = molecular target: T12, H421A; assay: as above
T12 construct: alanine scanning mutant of E2-G; also called pET32-E2-G-H421A

[16] = molecular target: T13, I414A (not fully specified); assay: as above
T13 construct: alanine scanning mutant of E2-G; also called pET32-E2-G-I414A (printed in the text as pET32-E2-G-1414A); not shown: N-terminal thioredoxin partner and vector-encoded stretch of pET32
T13 chain: QLANTNGSWHINHHHHHH

[17] = molecular target: T14, N417A; assay: as above
T14 construct: alanine scanning mutant of E2-G; also called pET32-E2-G-N417A

[18] = molecular target: T15, Q412A (not fully specified); assay: as above
T15 construct: alanine scanning mutant of E2-G; also called pET32-E2-G-Q412A; not shown: N-terminal thioredoxin partner and vector-encoded stretch of pET32
T15 chain: ALINTNGSWHINHHHHHH

[19] = molecular target: T16, N423A; assay: as above
T16 construct: alanine scanning mutant of E2-G; also called pET32-E2-G-N423A

[20] = molecular target: T17, S419A; assay: as above
T17 construct: alanine scanning mutant of E2-G; also called pET32-E2-G-S419A

[21] = molecular target: T1, E2-G bacterially expressed thioredoxin …; assay: Biacore SPR; antibody captured on goat anti-human IgG Fc, E2-G flowed over at varying concentrations; BIAevaluation fit
[22] = molecular target: T18, soluble HCV genotype 1b E2-661 (pCDNA-1b-E2-661) (Hepatitis C virus genotype 1b); assay: ELISA on plate coated with 2 µg/ml antigen; two-fold antibody dilutions; goat anti-human AP, PNPP
T18 construct: range 364-661

[23] = molecular target: E2-D; assay: ELISA on coated bacterial fusion protein; two-fold antibody dilutions; goat anti-human AP, PNPP
[24] = molecular target: T1, E2-G bacterially expressed thioredoxin …; assay: as above
[25] = molecular target: T1, E2-G bacterially expressed thioredoxin …; assay: as above
[26] = molecular target: T3, E2-G bacterially expressed fusion …; assay: as above
[27] = molecular target: T4, E2-G bacterially expressed fusion …; assay: as above
[28] = molecular target: T5, E2-G bacterially expressed fusion …; assay: as above
[29] = molecular target: T6, E2-G bacterially expressed fusion …; assay: as above
[30] = molecular target: T7, E2-G bacterially expressed fusion …; assay: as above
[31] = molecular target: E2-D; assay: as above; remark: listed apart in the source
[32] = molecular target: T8, N415A; assay: as above
[33] = molecular target: T10, I422A; assay: as above; remark: listed apart in the source
[34] = molecular target: T11, T416A; assay: as above; remark: listed apart in the source
[35] = molecular target: T1, E2-G bacterially expressed thioredoxin …; assay: as above
[36] = molecular target: T12, H421A; assay: as above; remark: listed apart in the source
[37] = molecular target: T13, I414A; assay: as above
[38] = molecular target: T14, N417A; assay: as above; remark: listed apart in the source
[39] = molecular target: T15, Q412A; assay: as above
[40] = molecular target: T16, N423A; assay: as above; remark: listed apart in the source
[41] = molecular target: T17, S419A; assay: as above; remark: listed apart in the source

E2-D, sequence (P27958 436-463, tags left off): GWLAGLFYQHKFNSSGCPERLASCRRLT

B1: human antibody 95-2 (antibody, V domains shown)
VH: QVQLVESGGGVVQPGRSLRLSCAASGFTFSSYGMHWVRQAPGKGLEWVAVIWFDGNNQYYADSVKGRFTISRDNSKNTLYLQMNSLRAEDTAVYYCARDIFTVVRGFFIYFDYWGQGTLVTVSS
VL: EIVLTQSPATLSLSPGERATLSCRASQSVGSYLAWYQQKPGQAPRLLIYDASNRATGIPARFSGSGSGTDFTLTISSLEPEDFAVYYCQQRSNWVTFGQGTRLEIK
notes: also called clone 95-2
EC50 (read off the curve) [1]: ~0.02 µg/mL
EC50 (read off the curve) [2]: ~0.02 µg/mL
EC50 (read off the curve) [3]: ~0.02 µg/mL
EC50 (read off the curve) [4]: ~0.02 µg/mL
EC50 (read off the curve) [5]: ~0.02 µg/mL
EC50 (read off the curve) [6]: ~0.02 µg/mL
EC50 (read off the curve) [7]: ~0.02 µg/mL
fold reduction of recognition (reference not named) [8]: 10 fold
EC50 (read off the curve) [9]: ~0.02 µg/mL
EC50 (read off the curve) [10]: ~0.03 µg/mL
EC50 (read off the curve) [11]: ~0.02 µg/mL
EC50 (read off the curve) [12]: ~0.02 µg/mL
EC50 (read off the curve) [13]: ~0.02 µg/mL
binding result [14]: binds
EC50 (read off the curve) [15]: ~0.02 µg/mL
EC50 (read off the curve) [16]: ~0.02 µg/mL
EC50 (read off the curve) [17]: ~0.02 µg/mL
EC50 (read off the curve) [18]: ~0.02 µg/mL
EC50 (read off the curve) [19]: ~0.02 µg/mL
EC50 (read off the curve) [20]: ~0.02 µg/mL
Kd [21]: 1.9 nM
koff [21]: 0.0003 s⁻¹
kon [21]: 160000 M⁻¹ s⁻¹
EC50 (read off the curve) [22]: ~0.1 µg/mL
binding result [23]: no binding (tested: 1 µg/ml)
EC50 (read off the curve) [24]: ~0.04 µg/mL

B2: human antibody 83-128 (antibody, V domains shown)
VH: QVQLVESGGGVVQPGRSLRLSCTASGFTFNNYGMHWVRQTPGKGLEWLAVIWFDENNKYYADSVRGRFTISRDNSKNTLFLQMNSLKTEDTAMYYCARDISLVRDAFIYFDFWGLGTLVTVSS
VL: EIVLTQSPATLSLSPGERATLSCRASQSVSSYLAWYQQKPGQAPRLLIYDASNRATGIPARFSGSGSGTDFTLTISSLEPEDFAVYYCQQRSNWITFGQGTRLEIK
EC50 (read off the curve) [25]: ~0.006 µg/mL
EC50 (read off the curve) [26]: ~0.006 µg/mL
EC50 (read off the curve) [27]: ~0.006 µg/mL
EC50 (read off the curve) [28]: ~0.006 µg/mL
EC50 (read off the curve) [29]: ~0.006 µg/mL
EC50 (read off the curve) [30]: ~0.006 µg/mL
Kd [21]: 3.8 nM
koff [21]: 0.00073 s⁻¹
kon [21]: 190000 M⁻¹ s⁻¹
binding result [31]: no binding (tested: 1 µg/ml)
EC50 (read off the curve) [32]: ~0.02 µg/mL
EC50 (read off the curve) [33]: ~0.02 µg/mL
EC50 (read off the curve) [34]: ~0.02 µg/mL
EC50 (read off the curve) [35]: ~0.02 µg/mL
EC50 (read off the curve) [36]: ~0.02 µg/mL
EC50 (read off the curve) [37]: ~0.03 µg/mL
EC50 (read off the curve) [38]: ~0.02 µg/mL
EC50 (read off the curve) [39]: ~0.02 µg/mL
EC50 (read off the curve) [40]: ~0.02 µg/mL
EC50 (read off the curve) [41]: ~0.02 µg/mL

— patent US20120288510A1 (UNIVERSITY OF MASSACHUSETTS, published 2012)
